This is an account of results in patent US20110300138A1 (published 2011).

Assay [1] deals with human TSH receptor (full length) coated on ELISA plate wells (human) (UniProt P16473). As to the kind of experiment: TSH-biotin binding inhibition ELISA, TSHR coated wells; 100 µg/mL in assay buffer + 100 µg/mL 5B3 IgG; negative control MAb. For orientation: In an ELISA, binding on a coated surface is turned into a signal by an enzyme label.
Assay [2] addresses TSHR (full length) coated on tubes (human) (UniProt P16473). As to the kind of experiment: inhibition of 125I-K1-18 Fab (competitor) binding to TSHR coated tubes; negative control 0.01 µg/mL in assay buffer.
The target of assay [3] is human TSH receptor (full length) coated on ELISA plate wells (human) (UniProt P16473). As to the kind of experiment: TSH-biotin binding inhibition ELISA, TSHR coated wells; 1 µg/mL in HBD serum pool; negative control MAb.
For assay [4], the target named is TSH receptor (full length human TSHR) (human) (UniProt P16473). As to the kind of experiment: competition ELISA: inhibition of M22 Fab-peroxidase (competitor) binding to TSHR coated wells; negative control at 1 µg/mL diluted in assay buffer.
Assay [5] addresses human thyroid stimulating hormone receptor (TSHR), full length (human) (UniProt P16473). As to the kind of experiment: 125I-K1-70 Fab (competitor) binding to TSHR coated tubes; negative control MAb 1 µg/mL in HBD serum.
The target in assay [6] is TSH receptor (TSHR) coated on tubes (human) (UniProt P16473). As to the kind of experiment: inhibition of 125I-K1-70 IgG binding to TSHR coated tubes; negative control 100 µg/mL in assay buffer.
In assay [7] the target is thyroid stimulating hormone receptor (TSHR), full length human TSHR (human) (UniProt P16473). As to the kind of experiment: TSH-biotin competition ELISA, TSHR coated wells; 0.1 µg/mL in assay buffer.
Assay [8] concerns the target TSHR (thyroid stimulating hormone receptor), full length human (human) (UniProt P16473). As to the kind of experiment: competitor ^125I-K1-70 IgG, TSHR coated tubes; 1 µg/mL in HBD.
For assay [9], the target named is thyroid stimulating hormone receptor (TSHR), full length human TSHR (human) (UniProt P16473). As to the kind of experiment: TSH-biotin competition ELISA, TSHR coated wells; 1 µg/mL in HBD serum.
The target in assay [10] is TSH receptor (TSHR), full length human, coated on tubes (human) (UniProt P16473). As to the kind of experiment: inhibition of 125I-K1-18 IgG binding to TSHR coated tubes; competitor 125I-K1-18 IgG; sample at 10 µg/mL in assay buffer.
The target is the same in assay [11]. As to the kind of experiment: inhibition of 125I-K1-18 IgG binding to TSHR coated tubes; competitor 125I-K1-18 IgG; sample at 0.1 µg/mL in assay buffer.
Assay [12] concerns the target TSH receptor (full length human TSHR) coated on tubes (human) (UniProt P16473). As to the kind of experiment: 125I-TSH binding inhibition read against NIBSC 90/672; 10 ng/mL, in serum.
The target is the same in assay [13]. As to the kind of experiment: 125I-TSH binding inhibition read against NIBSC 90/672; 30 ng/mL, in assay buffer.
Assay [14] deals with TSH receptor (TSHR), full length human, coated on tubes (human) (UniProt P16473). As to the kind of experiment: inhibition of 125I-K1-18 IgG (competitor) binding to TSHR coated tubes; test sample at 0.01 µg/mL in HBD serum pool.
Assay [15] has as its target thyroid stimulating hormone receptor (full length human TSHR) (human) (UniProt P16473). As to the kind of experiment: ELISA, inhibition of TSH-biotin binding to TSHR coated wells; 10 µg/mL, diluted in assay buffer.
Assay [16] has as its target human TSH receptor (full length) coated on ELISA plate wells (human) (UniProt P16473). As to the kind of experiment: TSH-biotin binding inhibition ELISA, TSHR coated wells; 100 µg/mL in assay buffer + 100 µg/mL 5B3 IgG.
Assay [17] has as its target human thyroid stimulating hormone receptor (TSHR), full length (human) (UniProt P16473). As to the kind of experiment: 125I-K1-18 Fab competition, TSHR coated tubes; 1 µg/mL in HBD.
Assay [18] concerns the target human TSH receptor (full length) coated on ELISA plate wells (human) (UniProt P16473). As to the kind of experiment: TSH-biotin binding inhibition ELISA, TSHR coated wells; 1 µg/mL in HBD serum pool.
Assay [19] deals with TSH receptor (TSHR) coated on tubes (human) (UniProt P16473). As to the kind of experiment: inhibition of 125I-K1-70 IgG binding to TSHR coated tubes; sample 0.01 µg/mL in assay buffer.
Assay [20] addresses TSH receptor (TSHR), full length human, coated on tubes (human) (UniProt P16473). As to the kind of experiment: inhibition of 125I-K1-18 IgG (competitor) binding to TSHR coated tubes; test sample at 10 µg/mL in HBD serum pool.
The target is the same in assay [21]. As to the kind of experiment: inhibition of 125I-TSH binding to TSHR coated tubes; 100 µg/mL, diluted in HBD serum pool.
Assay [22] deals with thyroid stimulating hormone receptor (TSHR), full length, coated on tubes (human) (UniProt P16473). As to the kind of experiment: inhibition of 125I-TSH binding, TSHR coated tubes; antibody 0.1 µg/mL in HBD serum pool.
In assay [23] the target is TSH receptor (TSHR) coated on tubes (human) (UniProt P16473). As to the kind of experiment: inhibition of 125I-K1-70 IgG binding to TSHR coated tubes; sample 0.1 µg/mL in assay buffer.
The target in assay [24] is human thyroid stimulating hormone receptor (TSHR), full length (human) (UniProt P16473). As to the kind of experiment: 125I-K1-18 Fab competition, TSHR coated tubes; 10 µg/mL in assay buffer.
For assay [25], the target named is thyroid stimulating hormone receptor (full length human TSHR) (human) (UniProt P16473). As to the kind of experiment: ELISA, inhibition of TSH-biotin binding to TSHR coated wells; 1 µg/mL, diluted in assay buffer.
Assay [26] has as its target TSH receptor (TSHR), full length human, coated on tubes (human) (UniProt P16473). As to the kind of experiment: inhibition of 125I-TSH binding to TSHR coated tubes; 10 µg/mL, diluted in HBD serum pool.
For assay [27], the target named is thyroid stimulating hormone receptor (full length human TSHR) (human) (UniProt P16473). As to the kind of experiment: ELISA: inhibition of M22 Fab-peroxidase (competitor) binding to TSHR coated wells; 0.01 µg/mL, diluted in assay buffer.

On to 5B3 IgG (antibody), for which the figures for the % inhibition of TSH-biotin binding in assay [1] and in assay [3] were 1.1% and 8%, respectively. Besides, the Inhibition of binding (%) in assay [2] is 0%; in [4] it was 3.4%; in assay [5] it was -7.8%; in assay [6] it was 15.2%.
As to 9D33 IgG (antibody), the Inhibition of binding (%) was determined as 59.7% in assay [7]; 40.5% in [8]; 76% in assay [9]; 63.2% in assay [10]; 54.8% in assay [11].
M22 IgG (antibody): in assay [12], the units/L is 1.5 units/L and the units/mg turned out to be 150 units/mg. In assay [13], this molecule gave a units/L of 8.6 units/L and a units/mg of 287 units/mg.

B1: 5C9 IgG (antibody, from another filing, V domains shown)
VH: EVQLVESGGGLIQPGGSLRLSCAASGFTVSSNYMSWVRQAPGKGLEWVSVTYSGGSTSYADSVKGRFTISRDNSKNTLYLQMNSLRAEDTAVYYCARGGRYCSSISCYARSGCDYWGQGTLVTVSS
VL: AIQMTQSPSSLSASVGDRVTITCRASQSISNYLNWYQQKPGKAPKLLIYAASSLQSGVPSRFSGSGSGTDFTLTISSLQPEDFATYYCQQSYSSPSTTFGQGTKLEIK
As for B1, the Inhibition of binding (%) in assay [14] is -1.8%; in [15] it was 37.8%; in assay [17], 23.2%; in [19] it was 4.5%; in [20], 46.7%; in [21], 59.2%. Besides, the Inhibition of binding (%) came out at 16.2% in assay [22]; 24.6% in assay [23]; 63.8% in assay [24]; 31.4% in assay [25]; 39.9% in assay [26]; 0.6% in [27]. The % inhibition of TSH-biotin binding was 92.3% in [16] and 35.7% in assay [18].
